In article PMC8423358:

Target: DPP9, short isoform (DPP9S), co-expressed with CARD8 for cryo-EM, Q86TI2
Experiment: cryo-EM structure
Details: remark: other sources report otherwise

- stoichiometry N: 2
B1: DPP9, short isoform (DPP9S), co-expressed with CARD8 for cryo-EM, Q86TI2-1 1-863 (enzyme)
chain: MATTGTPTADRGDAAATDDPAARFQVQKHSWDGLRSIIHGSRKYSGLIVNKAPHDFQFVQKTDESGPHSHRLYYLGMPYGSRENSLLYSEIPKKVRKEALLLLSWKQMLDHFQATPHHGVYSREEELLRERKRLGVFGITSYDFHSESGLFLFQASNSLFHCRDGGKNGFMVSPMKPLEIKTQCSGPRMDPKICPADPAFFSFINNSDLWVANIETGEERRLTFCHQGLSNVLDDPKSAGVATFVIQEEFDRFTGYWWCPTASWEGSEGLKTLRILYEEVDESEVEVIHVPSPALEERKTDSYRYPRTGSKNPKIALKLAEFQTDSQGKIVSTQEKELVQPFSSLFPKVEYIARAGWTRDGKYAWAMFLDRPQQWLQLVLLPPALFIPSTENEEQRLASARAVPRNVQPYVVYEEVTNVWINVHDIFYPFPQSEGEDELCFLRANECKTGFCHLYKVTAVLKSQGYDWSEPFSPGEDEFKCPIKEEIALTSGEWEVLARHGSKIWVNEETKLVYFQGTKDTPLEHHLYVVSYEAAGEIVRLTTPGFSHSCSMSQNFDMFVSHYSSVSTPPCVHVYKLSGPDDDPLHKQPRFWASMMEAASCPPDYVPPEIFHFHTRSDVRLYGMIYKPHALQPGKKHPTVLFVYGGPQVQLVNNSFKGIKYLRLNTLASLGYAVVVIDGRGSCQRGLRFEGALKNQMGQVEIEDQVEGLQFVAEKYGFIDLSRVAIHGWSYGGFLSLMGLIHKPQVFKVAIAGAPVTVWMAYDTGYTERYMDVPENNQHGYEAGSVALHVEKLPNEPNRLLILHGFLDENVHFFHTNFLVSQLIRAGKPYQLQIYPNERHSIRCPESGEHYEVTLLHFLQEYL
